# Laboratory results from patent publication US11786578B2, “Modified relaxin polypeptides and their uses” (AMBRX, INC., priority 2010, dated 2023).
# Read-outs that look alike come from different tables or passages of the source. Non-standard residues stand in square brackets, D forms with d. No end group written: not given here. Phe(4-Ac) = CC(=O)c1ccc(C[C@H](N)C(=O)O)cc1
# Key:
# [1] = PK of 20 kDa PEGylated relaxin polypeptides after a single subcutaneous injection in SD rats (Example 40); assay type: in vivo, Sprague-Dawley (SD) rats; conditions: for AUCinf / CL (mL/hr) / Cmax / MRT / Tmax / Vz / Terminal HL / Mean serum Conc.: 0.5 mg/kg SC; for AUCinf / CL (mL/hr) / Cmax / MRT / Tmax / Vz / Terminal HL: SD rats; for Terminal HL: non-compartmental; for Mean serum Conc.: male SD rats; for In vivo PK Term HL: 20K PEG
# Source text: This example evaluates the pharmacokinetic properties of 20 kDa PEGylated relaxin polypeptides following a single subcutaneous injection in SD rats.
# 1st order elimination model and Gauss-Newton (Levenberg-Hartley) model fit equation. […] FIG. 8A-8/compares group mean serum concentration versus time for all PEG-Relaxin compounds dosed. All dose groups had measurable serum PEG-Relaxin levels.
# [2] = biological target: T1, human RXFP4 (Homo sapiens, UniProt Q8TDU9); conditions: literature value; read-out: EC50 value reported in the literature, human RXFP4; cited from earlier work
# T1 construct: expressed in transfected cells
# T1 sequence (Q8TDU9 whole entry): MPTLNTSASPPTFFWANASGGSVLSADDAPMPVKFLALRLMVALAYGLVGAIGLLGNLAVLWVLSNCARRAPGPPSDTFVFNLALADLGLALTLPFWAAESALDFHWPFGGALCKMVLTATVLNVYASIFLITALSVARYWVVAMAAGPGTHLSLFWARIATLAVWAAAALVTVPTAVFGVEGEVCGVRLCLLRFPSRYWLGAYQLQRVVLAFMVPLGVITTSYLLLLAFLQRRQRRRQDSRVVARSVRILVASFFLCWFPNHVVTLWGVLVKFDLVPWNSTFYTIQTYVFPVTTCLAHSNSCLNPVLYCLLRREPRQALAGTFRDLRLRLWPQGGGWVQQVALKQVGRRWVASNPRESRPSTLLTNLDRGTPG
# [3] = biological target: T2, human RXFP3 (Homo sapiens, UniProt Q9NSD7); assay: Inhibition of forskolin-induced cAMP in human RXFP3/CHO-K1 stable line; assay type: cell-based; conditions: CHO-K1 stable line
# T2 sequence (Q9NSD7 1-469): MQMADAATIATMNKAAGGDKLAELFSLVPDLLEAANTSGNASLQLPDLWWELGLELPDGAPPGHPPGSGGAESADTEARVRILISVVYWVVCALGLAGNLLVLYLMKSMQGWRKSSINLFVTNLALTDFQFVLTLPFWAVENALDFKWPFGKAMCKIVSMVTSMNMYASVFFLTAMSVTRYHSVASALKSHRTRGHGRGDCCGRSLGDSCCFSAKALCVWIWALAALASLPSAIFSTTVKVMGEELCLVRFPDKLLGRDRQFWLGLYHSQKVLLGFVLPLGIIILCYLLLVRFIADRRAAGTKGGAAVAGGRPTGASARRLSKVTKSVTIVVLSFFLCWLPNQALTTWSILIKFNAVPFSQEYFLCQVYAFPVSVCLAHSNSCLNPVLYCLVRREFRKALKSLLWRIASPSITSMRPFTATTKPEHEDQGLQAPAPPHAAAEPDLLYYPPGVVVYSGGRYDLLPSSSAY
# Source text: The RXFP cDNAs, RXFP family members, as well as species orthologs, were obtained from commercially available cDNA clones or amplified from tissue RNAs as follows. Human RXFP1: A cDNA clone was obtained from OpenBiosystems (MHS4426-99239031. Human RXFP2: A cDNA clone for transcript variant 1 was obtained from OpenBiosystems (OHS4559-99620528). Cynomolgus monkey RXFP1: The cDNA was cloned out of Mauritian cyno brain RNA by RT-PCR using the following primers: forward: 5′-[…]-3′ (SEQ ID NO: 37); reverse: 5′-[…]-3′ (SEQ ID NO: 38). Dog RXFP1: The cDNA was cloned out of dog brain RNA by RT-PCR using the following primers: forward: 5′-[…]-3′ (SEQ ID NO: 39); reverse: 5′-[…]-3′ (SEQ ID NO: 40). Rat RXFP1: The cDNA was cloned out of Sprague Dawley rat brain RNA by RT-PCR using the following primers: forward: 5′-[…]-3′ (SEQ ID NO: 41); reverse: 5′-[…]-3 (SEQ ID NO: 42)′. Human RXFP3: A Gateway entry clone in vector pDONR221 was obtained from Invitrogen (IOH28381). Human RXFP4: A Gateway entry clone in vector pDONR201 was obtained. Mouse RXFP1: A Gateway entry clone in vector pDONR223 was obtained from OpenBiosystems (OMM4760-101549000). Using standard procedures (Gateway LR recombination), the RXFP entry clones were transferred into expression vector pEF-DEST51 (Invitrogen). In contrast to the all other RXFP clones, human RXFP4 was transferred into pcDNA3.1 (Invitrogen). […]
# [4] = biological target: T2, human RXFP3; conditions: literature value; read-out: EC50 value reported in the literature, human RXFP3; cited from earlier work
# [5] = biological target: T1, human RXFP4; assay: Inhibition of forskolin-induced cAMP in human RXFP4/CHO-K1 stable line; assay type: cell-based
# Source text: The RXFP cDNAs, RXFP family members, as well as species orthologs, were obtained from commercially available cDNA clones or amplified from tissue RNAs as follows. Human RXFP1: A cDNA clone was obtained from OpenBiosystems (MHS4426-99239031. Human RXFP2: A cDNA clone for transcript variant 1 was obtained from OpenBiosystems (OHS4559-99620528). Cynomolgus monkey RXFP1: The cDNA was cloned out of Mauritian cyno brain RNA by RT-PCR using the following primers: forward: 5′-[…]-3′ (SEQ ID NO: 37); reverse: 5′-[…]-3′ (SEQ ID NO: 38). Dog RXFP1: The cDNA was cloned out of dog brain RNA by RT-PCR using the following primers: forward: 5′-[…]-3′ (SEQ ID NO: 39); reverse: 5′-[…]-3′ (SEQ ID NO: 40). Rat RXFP1: The cDNA was cloned out of Sprague Dawley rat brain RNA by RT-PCR using the following primers: forward: 5′-[…]-3′ (SEQ ID NO: 41); reverse: 5′-[…]-3 (SEQ ID NO: 42)′. Human RXFP3: A Gateway entry clone in vector pDONR221 was obtained from Invitrogen (IOH28381). Human RXFP4: A Gateway entry clone in vector pDONR201 was obtained. Mouse RXFP1: A Gateway entry clone in vector pDONR223 was obtained from OpenBiosystems (OMM4760-101549000). Using standard procedures (Gateway LR recombination), the RXFP entry clones were transferred into expression vector pEF-DEST51 (Invitrogen). In contrast to the all other RXFP clones, human RXFP4 was transferred into pcDNA3.1 (Invitrogen). For each construct, the RXFP cDNA, as well as its proper insertion into the expression vector, was verified by DNA sequencing.
# CHO-K1 cells (ATCC #CRL-9618) were prepared for stable line generation by propagating at 37° C. with 5% CO2 in F-12 plus GlutaMAX-I medium (GIBCO #31765) supplemented with 10% fetal bovine heat-inactivated serum (Invitrogen #16140), and 1× Antibiotic-Antimycotic (GIBCO #15240-096). CHO-K1 cells were transfected with 12 μg of the appropriate expression construct plasmid using the FuGENE® 6 reagent (Roche #11814443 001) and the protocol provided by the manufacturer. One day post-transfection cells were replated into medium containing 10 μg of Blasticidin S HCl per mL (GIBCO #A11139-02). […]
Substance,AUCinf [1],CL (mL/hr) [1],Cmax [1],MRT [1],Tmax [1],Vz [1],Terminal HL [1],Mean serum Conc. ([1]; 1 hr),Mean serum Conc. ([1]; 4 hr),Mean serum Conc. ([1]; 8 hr),Mean serum Conc. ([1]; 12 hr),Mean serum Conc. ([1]; 25 hr),Mean serum Conc. ([1]; 34 hr),Mean serum Conc. ([1]; 50 hr),Mean serum Conc. ([1]; 58 hr),Mean serum Conc. ([1]; 73 hr),Mean serum Conc. ([1]; 80 hr),Mean serum Conc. ([1]; pre-dose (PD)),In vivo PK Term HL [1],Mean serum Conc. ([1]; 2 hr),other results
"RLX-A-BW28-20KPEG-001: relaxin variant, B1 Ala, pAF at B chain position W28, 20K PEGylated (chain 1 QLYSALANKCCHVGCTKRSLARFC; chain 2 ASWMEEVIKLCGRELVRAQIAICGMST[Phe(4-Ac)](PEG 20 kDa)S; not fully specified (bridges); ends and bridges not checked)",22191.2 ng·h/mL,0.375 mL/min/kg,511.0 ng/mL,31.1 h,25.0 h,0.4526 L/kg,13.9 h,36.4 ng/mL,228.5 ng/mL,380.9 ng/mL,486.6 ng/mL,511.0 ng/mL,404.8 ng/mL,184.2 ng/mL,122.3 ng/mL,48.8 ng/mL,37.1 ng/mL,BQL,13.9 h,–,–
"H3-RLX: H3-relaxin, the endogenous ligand for RXFP3 and RXFP4 receptors, positive control",–,–,–,–,–,–,–,–,–,–,–,–,–,–,–,–,–,–,–,–,"EC50 [2]: 1.1 nM; EC50 [3]: 0.6 nM; EC50 [4]: 0.4 nM; Maximal inhibition of forskolin-induced cAMP, human RXFP4 (partial agonist activity) [5]: ~40%; EC50 ([5]; CHO-K1 stable line, inhibition of forskolin-induced cAMP): 2.8 ± 1.5 nM"
"RLX-A-AV13-20KPEG-001: relaxin variant, B1 Ala, pAF substituted for valine 13 in the A chain, 20K PEG attached (chain 1 QLYSALANKCCHXGCTKRSLARFC; chain 2 ASWMEEVIKLCGRELVRAQIAICGMSTWS; not fully specified; non-natural residues)",32230.5 ng·h/mL,0.258 mL/min/kg,742.5 ng/mL,32.7 h,25.0 h,0.3254 L/kg,14.6 h,44.9 ng/mL,345.7 ng/mL,533.6 ng/mL,630.1 ng/mL,742.5 ng/mL,540.7 ng/mL,320.9 ng/mL,209.4 ng/mL,75.0 ng/mL,58.7 ng/mL,BQL,–,138.9 ng/mL,–
"RLX-A-AR18-20KPEG-001: relaxin variant, B1 Ala, pAF at A chain position R18, 20K PEGylated (chain 1 QLYSALANKCCHVGCTKXSLARFC; chain 2 ASWMEEVIKLCGRELVRAQIAICGMSTWS; not fully specified; non-natural residues)",12985.5 ng·h/mL,0.64 mL/min/kg,345.9 ng/mL,27.7 h,25.0 h,0.6947 L/kg,12.5 h,33.9 ng/mL,172.7 ng/mL,270.5 ng/mL,332.5 ng/mL,398.6 ng/mL,264.3 ng/mL,76.7 ng/mL,61.8 ng/mL,25.0 ng/mL,14.9 ng/mL,BQL,12.5 h,109.7 ng/mL,–
"RLX-A-BV7-20KPEG-001: relaxin variant, B1 Ala, pAF at B chain position V7, 20K PEGylated (chain 1 QLYSALANKCCHVGCTKRSLARFC; chain 2 ASWMEE[Phe(4-Ac)](PEG 20 kDa)IKLCGRELVRAQIAICGMSTWS; not fully specified (bridges); ends and bridges not checked)",17260.9 ng·h/mL,0.482 mL/min/kg,471.6 ng/mL,27.9 h,12.0 h,0.5469 L/kg,13.1 h,25.7 ng/mL,248.5 ng/mL,343.5 ng/mL,457.3 ng/mL,518.5 ng/mL,270.4 ng/mL,104.0 ng/mL,63.5 ng/mL,26.0 ng/mL,22.6 ng/mL,BQL,13.1 h,98.9 ng/mL,–
"RLX-A-AA5-20KPEG-001: relaxin variant, B1 Ala, pAF at A chain position A5, 20K PEGylated (chain 1 QLYSXLANKCCHVGCTKRSLARFC; chain 2 ASWMEEVIKLCGRELVRAQIAICGMSTWS; not fully specified; non-natural residues)",16095.9 ng·h/mL,0.518 mL/min/kg,438.0 ng/mL,29.4 h,25.0 h,0.5474 L/kg,12.2 h,19.9 ng/mL,185.0 ng/mL,264.7 ng/mL,434.3 ng/mL,438.0 ng/mL,353.5 ng/mL,86.9 ng/mL,62.4 ng/mL,32.8 ng/mL,22.1 ng/mL,BQL,12.2 h,100.1 ng/mL,–
